From publication PMC2941195 come the findings set out here.

Substrate in this data set: C=CC(C)(C)c1[nH]c2cc(O)ccc2c1C[C@@H]1NC(=O)[C@@H]2CCCN2C1=O
In words: Michaelis-Menten kinetics, HPLC product detection. The class given is biochemical, Aspergillus sp. MF297-2. The following applies: normal prenylation at C-7 with DMAPP, 5 mM MgCl2, 50 mM Tris-Cl pH 7.5.

B1: NotC (Aspergillus sp. MF297-2) (protein)
chain: MAIEEKSTSAEPGPYDALSRFSSLTGEDDRKWWEHTGPVLEKVMRDSGYELQSQYIYLYFVQQHLIPYLGKFPTRGQDDHRWQSNLTPYKVPYELSWNVSHKVVRISWDPVCDASGTENDAFNKKAIHDCTRQLAELDSTVILDRYRLLHKDLVITDEEEQQLLRRDVLPKSGRGQHNLAVDFQEGGITLKVYFYPYMKFLATGTPIEELFFSAIEKLRIADIDEAVGMLKCFLSPKSDDGKPSVDEKVFPSLLACDLCDPSKSRIKYYVIDKWVKWERIANLWTIGGRRLEDPYCAKGLALLKELWDLLAIPEGDRGDIWPNLVLGQPPTHLMTTIANYTLSPASRFPEPQVYLTTFGLNDMAIIDALTAFYERVGFTDMAKSYKKNVQSYYPNLDLNQTNWVHEAVSFSYRNSKPYLSVYYSPF
On to B1, for which the Km is 2.64 ± 0.33 µM and the kcat was determined as 1.01 ± 0.0317 s⁻¹.

Usually Km stands for the concentration of substrate that gives half-maximal velocity. Broadly, the kcat is the number of substrate molecules converted per active site and unit of time at saturation.
